The numbers were not newly measured in article PMC10330121, which cites them from elsewhere.

For orientation: Kd means a measure of binding affinity in units of concentration.

For data set [1], the target named is VRK1-K4me3 (Homo sapiens) (UniProt Q99986).
Data set [2] deals with histone H3 N-terminal tail (Homo sapiens) (UniProt P68431).
In a further data set the target is PAF15 (Homo sapiens) (UniProt Q15004).
PAF15 (Homo sapiens), sequence (Q15004 whole entry): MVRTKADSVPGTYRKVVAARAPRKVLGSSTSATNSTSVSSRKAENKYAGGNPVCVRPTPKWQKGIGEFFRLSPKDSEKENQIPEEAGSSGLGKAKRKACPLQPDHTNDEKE

UHRF1 PHD, sequence (Q96T88 307-369): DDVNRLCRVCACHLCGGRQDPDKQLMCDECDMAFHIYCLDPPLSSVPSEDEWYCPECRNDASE
PHF8 PHD-Jumonji, sequence (Q9UPP1 37-483): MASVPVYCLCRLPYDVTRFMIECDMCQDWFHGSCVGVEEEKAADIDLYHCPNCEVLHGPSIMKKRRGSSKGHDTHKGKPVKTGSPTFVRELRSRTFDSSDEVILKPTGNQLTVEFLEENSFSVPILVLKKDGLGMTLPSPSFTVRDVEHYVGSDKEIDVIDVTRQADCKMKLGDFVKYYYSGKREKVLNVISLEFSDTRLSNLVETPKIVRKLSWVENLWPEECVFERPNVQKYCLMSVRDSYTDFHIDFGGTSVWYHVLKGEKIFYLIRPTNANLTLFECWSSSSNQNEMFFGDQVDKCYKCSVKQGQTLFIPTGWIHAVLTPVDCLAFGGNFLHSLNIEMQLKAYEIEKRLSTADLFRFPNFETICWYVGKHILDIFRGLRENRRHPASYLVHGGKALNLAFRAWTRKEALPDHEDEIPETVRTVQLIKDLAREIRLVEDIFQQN
VRK1-K4me3 (Homo sapiens), sequence (Q99986 whole entry): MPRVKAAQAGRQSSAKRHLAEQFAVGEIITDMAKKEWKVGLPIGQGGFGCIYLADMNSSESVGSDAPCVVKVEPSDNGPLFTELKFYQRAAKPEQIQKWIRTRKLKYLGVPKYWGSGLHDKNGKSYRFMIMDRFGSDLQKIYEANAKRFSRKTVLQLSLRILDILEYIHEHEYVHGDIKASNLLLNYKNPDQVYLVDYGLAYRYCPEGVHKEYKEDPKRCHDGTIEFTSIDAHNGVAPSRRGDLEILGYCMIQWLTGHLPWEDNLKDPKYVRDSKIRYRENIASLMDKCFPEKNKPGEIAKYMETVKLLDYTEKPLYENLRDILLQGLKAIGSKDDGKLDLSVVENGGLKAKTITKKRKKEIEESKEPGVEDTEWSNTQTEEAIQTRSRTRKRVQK

As for PHF8 PHD-Jumonji (from UniProt Q9UPP1), the Kd in data set [1] is 42 nM.

As to UHRF1 PHD (from UniProt Q96T88), the Kd (in data set [2]; with PAF15 (Homo sapiens)) was 2000 nM in each case.
